In US20140087995A1 (published 2014):
Substitutions are numbered along the chain they refer to. Numbered stars: 1 amine (or outer) side, 2 acyl side, 3 side chain; on linkers, the order of the positions; unused ones are H or OH. Bridge positions count the residues as written; N and C are the ends. Side chains are listed from the residue outwards. Ends that are not written are not given here. * marks the point of attachment. C20 diacid = O=C(O)CCCCCCCCCCCCCCCCCCC(=O)*; γGlu = O=C(O)[C@H](CCC(=O)[*:2])N[*:1]; AEEA = NCCOCCOCC(=O)O

T1: human calcitonin receptor (human, UniProt P30988 25-474)
T1 sequence (looked up): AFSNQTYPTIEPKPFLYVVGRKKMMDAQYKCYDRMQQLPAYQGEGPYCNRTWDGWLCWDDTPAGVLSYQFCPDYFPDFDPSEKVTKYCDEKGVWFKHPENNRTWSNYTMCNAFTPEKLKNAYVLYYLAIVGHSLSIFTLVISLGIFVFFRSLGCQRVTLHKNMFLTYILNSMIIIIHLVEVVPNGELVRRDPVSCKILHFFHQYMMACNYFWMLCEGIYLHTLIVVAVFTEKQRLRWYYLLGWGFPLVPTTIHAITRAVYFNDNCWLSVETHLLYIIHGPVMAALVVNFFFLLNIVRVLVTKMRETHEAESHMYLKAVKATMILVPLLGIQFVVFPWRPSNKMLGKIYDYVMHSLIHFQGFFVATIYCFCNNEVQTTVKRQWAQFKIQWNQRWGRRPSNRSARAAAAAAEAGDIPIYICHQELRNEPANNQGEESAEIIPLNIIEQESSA

T2: human amylin 3(a) receptor (human calcitonin receptor co-expressed with RAMP-3) (human, UniProt P30988 25-474; O60896 24-148, limits assumed)
T2 sequence (looked up) 1: T1 sequence (looked up)
T2 sequence (looked up) 2: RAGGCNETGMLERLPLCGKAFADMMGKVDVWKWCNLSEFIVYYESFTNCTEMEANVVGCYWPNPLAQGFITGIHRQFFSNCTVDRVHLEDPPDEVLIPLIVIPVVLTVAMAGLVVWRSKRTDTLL

T3: human amylin receptor (amylin 3(a) receptor: human calcitonin receptor with RAMP-3) (human, UniProt P30988 25-474; O60896 24-148)
T3 construct: whole, on cells; also called hAmylin-R; hAmylinR
T3 sequence (looked up) 1: T1 sequence (looked up)
T3 sequence (looked up) 2: T2 sequence (looked up) 2

B1: N^ε1-[(4S)-4-carboxy-4-[[(4S)-4-carboxy-4-(19-carboxynonadecanoylamino)butanoyl]amino]butanoyl]-[Asp14,Arg17,Pro21,Pro27,Arg35]-h-amylin (peptide)
peptide: K([γGlu-γGlu-C20 diacid])CNTATCATQRLADFLRHSSPNFGAIPSSTNVGSRTY-NH2
modifications: disulfide 2-7; N-terminus assumed
SMILES: CC[C@H](C)[C@H](NC(=O)[C@H](C)NC(=O)CNC(=O)[C@H](Cc1ccccc1)NC(=O)[C@H](CC(N)=O)NC(=O)[C@@H]1CCCN1C(=O)[C@H](CO)NC(=O)[C@H](CO)NC(=O)[C@H](Cc1c[nH]cn1)NC(=O)[C@H](CCCNC(=N)N)NC(=O)[C@H](CC(C)C)NC(=O)[C@H](Cc1ccccc1)NC(=O)[C@H](CC(=O)O)NC(=O)[C@H](C)NC(=O)[C@H](CC(C)C)NC(=O)[C@H](CCCNC(=N)N)NC(=O)[C@H](CCC(N)=O)NC(=O)[C@@H](NC(=O)[C@H](C)NC(=O)[C@@H]1CSSC[C@H](NC(=O)[C@@H](N)CCCCNC(=O)CC[C@H](NC(=O)CC[C@H](NC(=O)CCCCCCCCCCCCCCCCCCC(=O)O)C(=O)O)C(=O)O)C(=O)N[C@@H](CC(N)=O)C(=O)N[C@@H]([C@@H](C)O)C(=O)N[C@@H](C)C(=O)N[C@@H]([C@@H](C)O)C(=O)N1)[C@@H](C)O)C(=O)N1CCC[C@H]1C(=O)N[C@@H](CO)C(=O)N[C@@H](CO)C(=O)N[C@H](C(=O)N[C@@H](CC(N)=O)C(=O)N[C@H](C(=O)NCC(=O)N[C@@H](CO)C(=O)N[C@@H](CCCNC(=N)N)C(=O)N[C@H](C(=O)N[C@@H](Cc1ccc(O)cc1)C(N)=O)[C@@H](C)O)C(C)C)[C@@H](C)O
notes: also called compound 52
B2: N^α1-[2-[2-[2-[[2-[2-[2-[[(4S)-4-carboxy-4-(19-carboxynonadecanoylamino)butanoyl]amino]ethoxy]ethoxy]acetyl]amino]ethoxy]ethoxy]acetyl]-[Glu14,Arg17,Pro21,Pro27 … (peptide)
peptide: KCNTATCATQRLAEFLRHSSPNFGAIPSSTNVGSNTY
modifications: alpha-amino group of N-terminal Lys1 acylated with C20 diacid via linker gGlu-2xOEG; disulfide bridge Cys2-Cys7 and C-terminal amide as in human amylin
notes: also called compound 19
B3: N^ε1-[2-[2-[2-[[(4S)-4-carboxy-4-(19-carboxynonadecanoylamino)butanoyl]amino]ethoxy]ethoxy]acetyl]-[Arg14,Arg17,Pro21,Pro27,Pro31]-h-amylin (peptide)
peptide: K([AEEA-γGlu-C20 diacid])CNTATCATQRLARFLRHSSPNFGAIPSSTPVGSNTY-NH2
modifications: disulfide 2-7; N-terminus assumed
SMILES: CC[C@H](C)[C@H](NC(=O)[C@H](C)NC(=O)CNC(=O)[C@H](Cc1ccccc1)NC(=O)[C@H](CC(N)=O)NC(=O)[C@@H]1CCCN1C(=O)[C@H](CO)NC(=O)[C@H](CO)NC(=O)[C@H](Cc1c[nH]cn1)NC(=O)[C@H](CCCNC(=N)N)NC(=O)[C@H](CC(C)C)NC(=O)[C@H](Cc1ccccc1)NC(=O)[C@H](CCCNC(=N)N)NC(=O)[C@H](C)NC(=O)[C@H](CC(C)C)NC(=O)[C@H](CCCNC(=N)N)NC(=O)[C@H](CCC(N)=O)NC(=O)[C@@H](NC(=O)[C@H](C)NC(=O)[C@@H]1CSSC[C@H](NC(=O)[C@@H](N)CCCCNC(=O)COCCOCCNC(=O)CC[C@H](NC(=O)CCCCCCCCCCCCCCCCCCC(=O)O)C(=O)O)C(=O)N[C@@H](CC(N)=O)C(=O)N[C@@H]([C@@H](C)O)C(=O)N[C@@H](C)C(=O)N[C@@H]([C@@H](C)O)C(=O)N1)[C@@H](C)O)C(=O)N1CCC[C@H]1C(=O)N[C@@H](CO)C(=O)N[C@@H](CO)C(=O)N[C@H](C(=O)N1CCC[C@H]1C(=O)N[C@H](C(=O)NCC(=O)N[C@@H](CO)C(=O)N[C@@H](CC(N)=O)C(=O)N[C@H](C(=O)N[C@@H](Cc1ccc(O)cc1)C(N)=O)[C@@H](C)O)C(C)C)[C@@H](C)O
notes: also called compound 64
B4: N^α1-[(4S)-4-carboxy-4-(19-carboxynonadecanoylamino)butanoyl]-[Arg17,Pro21,Pro27,His34]-h-amylin (peptide)
peptide: B2 peptide with E14N, S34H
modifications: alpha-amino group of N-terminal Lys1 acylated with C20 diacid via linker gGlu; disulfide bridge Cys2-Cys7 and C-terminal amide as in human amylin
notes: also called compound 40
B5: N^ε1-[2-[2-[2-[[2-[2-[2-[[(4S)-4-carboxy-4-(19-carboxynonadecanoylamino)butanoyl]amino]ethoxy]ethoxy]acetyl]amino]ethoxy]ethoxy]acetyl]-[Arg17,Pro21,Pro27,Glu35 … (peptide)
peptide: K([AEEA-AEEA-γGlu-C20 diacid])CNTATCATQRLANFLRHSSPNFGAIPSSTNVGSETY-NH2
modifications: disulfide 2-7; N-terminus assumed
SMILES: CC[C@H](C)[C@H](NC(=O)[C@H](C)NC(=O)CNC(=O)[C@H](Cc1ccccc1)NC(=O)[C@H](CC(N)=O)NC(=O)[C@@H]1CCCN1C(=O)[C@H](CO)NC(=O)[C@H](CO)NC(=O)[C@H](Cc1c[nH]cn1)NC(=O)[C@H](CCCNC(=N)N)NC(=O)[C@H](CC(C)C)NC(=O)[C@H](Cc1ccccc1)NC(=O)[C@H](CC(N)=O)NC(=O)[C@H](C)NC(=O)[C@H](CC(C)C)NC(=O)[C@H](CCCNC(=N)N)NC(=O)[C@H](CCC(N)=O)NC(=O)[C@@H](NC(=O)[C@H](C)NC(=O)[C@@H]1CSSC[C@H](NC(=O)[C@@H](N)CCCCNC(=O)COCCOCCNC(=O)COCCOCCNC(=O)CC[C@H](NC(=O)CCCCCCCCCCCCCCCCCCC(=O)O)C(=O)O)C(=O)N[C@@H](CC(N)=O)C(=O)N[C@@H]([C@@H](C)O)C(=O)N[C@@H](C)C(=O)N[C@@H]([C@@H](C)O)C(=O)N1)[C@@H](C)O)C(=O)N1CCC[C@H]1C(=O)N[C@@H](CO)C(=O)N[C@@H](CO)C(=O)N[C@H](C(=O)N[C@@H](CC(N)=O)C(=O)N[C@H](C(=O)NCC(=O)N[C@@H](CO)C(=O)N[C@@H](CCC(=O)O)C(=O)N[C@H](C(=O)N[C@@H](Cc1ccc(O)cc1)C(N)=O)[C@@H](C)O)C(C)C)[C@@H](C)O
notes: also called compound 25
B6: N^ε1-[2-[2-[2-[[(4S)-4-carboxy-4-(19-carboxynonadecanoylamino)butanoyl]amino]ethoxy]ethoxy]acetyl]-[Ala14,Arg17,Pro21,Pro27,Pro31]-h-amylin (peptide)
peptide: K([AEEA-γGlu-C20 diacid])CNTATCATQRLAAFLRHSSPNFGAIPSSTPVGSNTY-NH2
modifications: disulfide 2-7; N-terminus assumed
SMILES: CC[C@H](C)[C@H](NC(=O)[C@H](C)NC(=O)CNC(=O)[C@H](Cc1ccccc1)NC(=O)[C@H](CC(N)=O)NC(=O)[C@@H]1CCCN1C(=O)[C@H](CO)NC(=O)[C@H](CO)NC(=O)[C@H](Cc1c[nH]cn1)NC(=O)[C@H](CCCNC(=N)N)NC(=O)[C@H](CC(C)C)NC(=O)[C@H](Cc1ccccc1)NC(=O)[C@H](C)NC(=O)[C@H](C)NC(=O)[C@H](CC(C)C)NC(=O)[C@H](CCCNC(=N)N)NC(=O)[C@H](CCC(N)=O)NC(=O)[C@@H](NC(=O)[C@H](C)NC(=O)[C@@H]1CSSC[C@H](NC(=O)[C@@H](N)CCCCNC(=O)COCCOCCNC(=O)CC[C@H](NC(=O)CCCCCCCCCCCCCCCCCCC(=O)O)C(=O)O)C(=O)N[C@@H](CC(N)=O)C(=O)N[C@@H]([C@@H](C)O)C(=O)N[C@@H](C)C(=O)N[C@@H]([C@@H](C)O)C(=O)N1)[C@@H](C)O)C(=O)N1CCC[C@H]1C(=O)N[C@@H](CO)C(=O)N[C@@H](CO)C(=O)N[C@H](C(=O)N1CCC[C@H]1C(=O)N[C@H](C(=O)NCC(=O)N[C@@H](CO)C(=O)N[C@@H](CC(N)=O)C(=O)N[C@H](C(=O)N[C@@H](Cc1ccc(O)cc1)C(N)=O)[C@@H](C)O)C(C)C)[C@@H](C)O
notes: also called compound 72
B7: N^ε1-[(4S)-4-carboxy-4-(19-carboxynonadecanoylamino)butanoyl]-[Arg17,Pro21,Pro27]-h-amylin (peptide)
peptide: K([γGlu-C20 diacid])CNTATCATQRLANFLRHSSPNFGAIPSSTNVGSNTY-NH2
modifications: disulfide 2-7; N-terminus assumed
SMILES: CC[C@H](C)[C@H](NC(=O)[C@H](C)NC(=O)CNC(=O)[C@H](Cc1ccccc1)NC(=O)[C@H](CC(N)=O)NC(=O)[C@@H]1CCCN1C(=O)[C@H](CO)NC(=O)[C@H](CO)NC(=O)[C@H](Cc1c[nH]cn1)NC(=O)[C@H](CCCNC(=N)N)NC(=O)[C@H](CC(C)C)NC(=O)[C@H](Cc1ccccc1)NC(=O)[C@H](CC(N)=O)NC(=O)[C@H](C)NC(=O)[C@H](CC(C)C)NC(=O)[C@H](CCCNC(=N)N)NC(=O)[C@H](CCC(N)=O)NC(=O)[C@@H](NC(=O)[C@H](C)NC(=O)[C@@H]1CSSC[C@H](NC(=O)[C@@H](N)CCCCNC(=O)CC[C@H](NC(=O)CCCCCCCCCCCCCCCCCCC(=O)O)C(=O)O)C(=O)N[C@@H](CC(N)=O)C(=O)N[C@@H]([C@@H](C)O)C(=O)N[C@@H](C)C(=O)N[C@@H]([C@@H](C)O)C(=O)N1)[C@@H](C)O)C(=O)N1CCC[C@H]1C(=O)N[C@@H](CO)C(=O)N[C@@H](CO)C(=O)N[C@H](C(=O)N[C@@H](CC(N)=O)C(=O)N[C@H](C(=O)NCC(=O)N[C@@H](CO)C(=O)N[C@@H](CC(N)=O)C(=O)N[C@H](C(=O)N[C@@H](Cc1ccc(O)cc1)C(N)=O)[C@@H](C)O)C(C)C)[C@@H](C)O
notes: also called 48; compound 48

Each binder was assayed against T1, human calcitonin receptor (assay: cell-based or functional assay).

Binder	hCTR funct. EC50 [nM]
B1	14.1

These binders were tested against T2, human amylin 3(a) receptor (human …) (assay: cell-based or functional assay).

Binder	Ratio hCT/hAmylin funct. (hCTR EC50 over hAmylin-R EC50)	hAmylin-R funct. EC50 (pM)
B2	17.4	307
B3	60.7	378
B4	16.4	164
B5	46.2	217
B6	44.9	106

The binders below were run against T3, human amylin receptor (amylin 3(a) …) (assay: SPA displacement of 125I-rat amylin, hAmylin 3(a) receptor membranes).
In short: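 Cell membranes were prepared by homogenisation in Na-HEPES/EDTA buffer, pH 7.4, and stored at −80° C. They were then coupled to SPA beads at 35 ng/μL final and exposed to compounds in assay buffer containing CaCl2, MgCl₂, OA and Tween20. After 120 min at 25° C, plates were counted and IC₅₀ derived.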

Binder	IC50 [nM]
B7	0.443
